The Immune Epitope Database (IEDB)

What was measured:
HLA-A*02:01 [1] = experiment: IEDB peptide-MHC binding, purified MHC/competitive/fluorescence; filed as Kd, often an IC50 or EC50 that approximates it; ≥ and ≤ were set here for values at or beyond the usual limits of such assays
HLA-A*24:02 = experiment: as above
HLA-B*48:01 = experiment: as above; settings: source organism: Mycobacterium tuberculosis variant bovis BCG str. Pasteur 1173P2
HLA-A*32:15 = experiment: as above; settings: source organism: Shigella flexneri 5 str. 8401
HLA-A*68:23 = experiment: as above; settings: source organism: Shigella flexneri 5 str. 8401
HLA-B*15:42 = experiment: as above; settings: source organism: Shigella flexneri 5 str. 8401
HLA-B*40:01 = experiment: as above
HLA-B*40:13 = experiment: as above; settings: source organism: Shigella flexneri 5 str. 8401
HLA-B*45:06 = experiment: as above; settings: source organism: Shigella flexneri 5 str. 8401
HLA-B*83:01 = experiment: as above; settings: source organism: Shigella flexneri 5 str. 8401
HLA-A*01:01 = experiment: as above; settings: source organism: Acinetobacter baumannii
HLA-A*03:01 [2] = experiment: as above; settings: source organism: Acinetobacter baumannii
HLA-A*11:01 = experiment: as above; settings: source organism: Acinetobacter baumannii
HLA-A*26:01 [3] = experiment: as above; settings: source organism: Acinetobacter baumannii
HLA-A*31:01 = experiment: as above; settings: source organism: Acinetobacter baumannii
HLA-A*69:01 [4] = experiment: as above; settings: source organism: Acinetobacter baumannii
HLA-B*07:02 = experiment: as above; settings: source organism: Acinetobacter baumannii
HLA-B*08:01 = experiment: as above; settings: source organism: Acinetobacter baumannii
HLA-B*15:01 [5] = experiment: as above; settings: source organism: Acinetobacter baumannii
HLA-B*18:01 [6] = experiment: as above; settings: source organism: Acinetobacter baumannii
HLA-B*27:05 = experiment: as above; settings: source organism: Acinetobacter baumannii
HLA-B*35:01 = experiment: as above; settings: source organism: Acinetobacter baumannii
HLA-B*58:01 = experiment: as above; settings: source organism: Acinetobacter baumannii
HLA-A*02:01 [7] = experiment: IEDB peptide-MHC binding, purified MHC/direct/fluorescence; filed as Kd, often an IC50 or EC50 that approximates it; ≥ and ≤ were set here for values at or beyond the usual limits of such assays
HLA-A*02:03 = experiment: as above; settings: source organism: Burkholderia mallei ATCC 23344
HLA-A*02:11 = experiment: as above
HLA-A*02:12 = experiment: as above
HLA-A*02:16 = experiment: as above
HLA-A*02:19 = experiment: as above
HLA-A*03:01 [8] = experiment: as above
HLA-A*24:03 = experiment: as above; settings: source organism: Burkholderia mallei ATCC 23344
HLA-A*26:01 [9] = experiment: as above
HLA-A*68:02 = experiment: as above; settings: source organism: Burkholderia mallei ATCC 23344
HLA-A*69:01 [10] = experiment: as above; settings: source organism: Burkholderia mallei ATCC 23344
HLA-B*15:01 [11] = experiment: as above; settings: source organism: Burkholderia mallei ATCC 23344
HLA-B*18:01 [12] = experiment: as above
HLA-B*27:03 = experiment: as above
HLA-B*39:01 = experiment: as above
HLA-B*46:01 = experiment: as above
HLA-B*51:01 = experiment: as above
HLA-B*57:01 = experiment: as above; settings: source organism: Mycobacterium tuberculosis str. Haarlem
[13] = source organism: Salmonella enterica subsp. enterica serovar Typhi
[14] = source organism: Acinetobacter baumannii
[15] = source organism: Burkholderia mallei ATCC 23344
[16] = source organism: Mycobacterium tuberculosis str. Haarlem

## TLMFGFFGF
HLA-A*02:01 [1]; [13]
  Kd: 4 µM
HLA-A*24:02; [13]
  Kd: ≥ 5 µM

## RMVIGGVAL
HLA-B*48:01
  Kd: 68.1 nM

## HEWKIPLLI
HLA-A*32:15
  Kd: 2610 nM
HLA-A*68:23
  Kd: 278 nM
HLA-B*15:42
  Kd: ≥ 5 µM
HLA-B*40:01; source organism: Shigella flexneri 5 str. 8401
  Kd: 9.7 nM
HLA-B*40:13
  Kd: 10.9 nM
HLA-B*45:06
  Kd: ≥ 5 µM
HLA-B*83:01
  Kd: 10.5 µM

## SIYAGNTPK
HLA-A*01:01
  Kd: ≥ 20 µM
HLA-A*02:01 [1]; [14]
  Kd: ≥ 20 µM
HLA-A*03:01 [2]
  Kd: 38.5 nM
HLA-A*11:01
  Kd: 15 nM
HLA-A*24:02; [14]
  Kd: ≥ 20 µM
HLA-A*26:01 [3]
  Kd: ≥ 20 µM
HLA-A*31:01
  Kd: 34.4 nM
HLA-A*69:01 [4]
  Kd: ≥ 20 µM
HLA-B*07:02
  Kd: ≥ 20 µM
HLA-B*08:01
  Kd: ≥ 20 µM
HLA-B*15:01 [5]
  Kd: ≥ 20 µM
HLA-B*18:01 [6]
  Kd: ≥ 20 µM
HLA-B*27:05
  Kd: ≥ 20 µM
HLA-B*35:01
  Kd: ≥ 20 µM
HLA-B*40:01; [14]
  Kd: ≥ 20000 nM
HLA-B*58:01
  Kd: ≥ 20 µM

## LARFPCNVI
HLA-A*02:01 [7]; [15]
  Kd: ≥ 20 µM
HLA-A*02:03
  Kd: ≥ 20 µM
HLA-A*02:11; [15]
  Kd: ≥ 20 µM
HLA-A*02:12; [15]
  Kd: ≥ 20 µM
HLA-A*02:16; [15]
  Kd: ≥ 20 µM
HLA-A*02:19; [15]
  Kd: ≥ 20 µM
HLA-A*03:01 [8]; [15]
  Kd: ≥ 20 µM
HLA-A*24:03
  Kd: ≥ 20 µM
HLA-A*26:01 [9]; [15]
  Kd: ≥ 20 µM
HLA-A*68:02
  Kd: ≥ 20 µM
HLA-A*69:01 [10]
  Kd: ≥ 20 µM
HLA-B*15:01 [11]
  Kd: ≥ 20 µM
HLA-B*18:01 [12]; [15]
  Kd: ≥ 20 µM
HLA-B*27:03; [15]
  Kd: ≥ 20 µM
HLA-B*39:01; [15]
  Kd: ≥ 20 µM
HLA-B*46:01; [15]
  Kd: ≥ 20 µM
HLA-B*51:01; [15]
  Kd: 606 nM

## RLGWRTLDF
HLA-A*02:01 [7]; [16]
  Kd: ≥ 20 µM
HLA-A*02:11; [16]
  Kd: ≥ 20 µM
HLA-A*02:12; [16]
  Kd: ≥ 20 µM
HLA-A*02:16; [16]
  Kd: ≥ 20 µM
HLA-A*02:19; [16]
  Kd: ≥ 20 µM
HLA-A*03:01 [8]; [16]
  Kd: ≥ 20 µM
HLA-A*26:01 [9]; [16]
  Kd: ≥ 20 µM
HLA-B*18:01 [12]; [16]
  Kd: ≥ 20 µM
HLA-B*27:03; [16]
  Kd: ≥ 20 µM
HLA-B*39:01; [16]
  Kd: ≥ 20 µM
HLA-B*46:01; [16]
  Kd: ≥ 20 µM
HLA-B*51:01; [16]
  Kd: ≥ 20000 nM
HLA-B*57:01
  Kd: ≥ 20 µM
